What was measured:
[1] = system: DRG neuronal explant cultures; test: in vitro Wallerian degeneration assay, DRG explant neurite transection; format: cell-based, mouse; details: lentivirus-mediated expression in DRG neurons
Protocol: (§1) To identify the mechanism of delayed axonal degeneration mediated by the Wlds protein, we employed an in-vitro Wallerian degeneration model. Primary DRG explant neurons were infected with lentivirus expressing the appropriate proteins, and axons were injured by either removal of the neuronal cell body (transection) or growth in vincristine (toxic).
Mouse DRG explants from E12.5 embryos were cultured in the presence of 1 nM nerve growth factor. Non-neuronal cells were removed from the cultures by adding 5-fluorouracil to the culture medium. Transection of neurites was performed at 10-20 DIV using an 18-gauge needle to remove the neuronal cell bodies. […]
Quantitative analysis of axonal degeneration was performed as previously described (Zhai, et al., Neuron 39:217-25, 2003). […] Axons with a fragmented, non-refractile appearance were designated as “degenerated.” At each time point, at least 200 singly distinguishable axons were blindly scored from several randomly taken images of each culture. […] For calculations of neurite-covered area, digitally captured images from quadruplicate samples of two independent experiments were analyzed using analysis 3.1 software (Soft Imaging System, Lakewood, Colo.).
Cell culture, in vitro axotomy, and quantification of axonal degeneration. […] Quantitative analysis of neurite degeneration was performed.

DRG neuronal explant = test: vincristine-induced axonal degeneration in DRG neuronal explants; format: cell-based, mouse; details: 0.5 μM vincristine for up to 9 d; lentiviral expression
Protocol: as §1
Quantitative analysis of axonal degeneration was performed as previously described (Zhai, et al., Neuron 39:217-25, 2003). Briefly, the cultures were examined using phase contrast microscopy at the indicated times. Axons with a fragmented, non-refractile appearance were designated as “degenerated.” At each time point, at least 200 singly distinguishable axons were blindly scored from several randomly taken images of each culture. Each condition was tested in triplicate explants in each experiment. Results were obtained from 2-4 independent experiments for each condition. Statistical analysis was performed by Student's T test. For calculations of neurite-covered area, digitally captured images from quadruplicate samples of two independent experiments were analyzed using analysis 3.1 software (Soft Imaging System, Lakewood, Colo.). […]

B1: NmPRT: nicotinamide phosphoribosyltransferase (protein, UniProt P43490 1-491, looked up)
Nicotinamide …: MNPAAEAEFNILLATDSYKVTHYKQYPPNTSKVYSYFECREKKTENSKLRKVKYEETVFYGLQYILNKYLKGKVVTKEKIQEAKDVYKEHFQDDVFNEKGWNYILEKYDGHLPIEIKAVPEGFVIPRGNVLFTVENTDPECYWLTNWIETILVQSWYPITVATNSREQKKILAKYLLETSGNLDGLEYKLHDFGYRGVSSQETAGIGASAHLVNFKGTDTVAGLALIKKYYGTKDPVPGYSVPAAEHSTITAWGKDHEKDAFEHIVTQFSSVPVSVVSDSYDIYNACEKIWGEDLRHLIVSRSTQAPLIIRPDSGNPLDTVLKVLEILGKKFPVTENSKGYKLLPPYLRVIQGDGVDINTLQEIVEGMKQKMWSIENIAFGSGGGLLQKLTRDLLNCSFKCSYVVTNGLGINVFKDPVADPNKRSKKGRLSLHRTPAGNFVTLEEGKGDLEEYGQDLLHTVFKNGKVTKSYSFDEIRKNAQLNIELEAAHH
[1]
  axonal/neurite degeneration after transection: shows axonal protection

B2: NMNAT1: nicotinamide mononucleotide adenylyltransferase1, lentivirus expressed (protein, UniProt Q9EPA7 1-285, looked up)
Nicotinamide/nicotinic acid …: MDSSKKTEVVLLACGSFNPITNMHLRLFELAKDYMHATGKYSVIKGIISPVGDAYKKKGLIPAHHRIIMAELATKNSHWVEVDTWESLQKEWVETVKVLRYHQEKLATGSCSYPQSSPALEKPGRKRKWADQKQDSSPQKPQEPKPTGVPKVKLLCGADLLESFSVPNLWKMEDITQIVANFGLICITRAGSDAQKFIYESDVLWRHQSNIHLVNEWITNDISSTKIRRALRRGQSIRYLVPDLVQEYIEKHELYNTESEGRNAGVTLAPLQRNAAEAKHNHSTL
DRG neuronal explant
  axon length and refractility: maintained their original length and refractility
